# B1: RIT1 (parent)
# chain: FHALVREIRRKEKEAVLAMEKKSK
# B2: GALNT9 (parent)
# chain: FTQSGPIVSRATGRCLEVEMSKDA
# Variants of: B1
# Assay: protein stability index of a GFP-peptide fusion (GPS, HEK-293T) (PSI 1-6); higher = more stable
# Conditions: c terminus: a fixed tail appended
# 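Also: lentivirally expressed fusions sorted by FACS into six bins by GFP to DsRed ratio, PSI derived from sequencing read proportions per bin multiplied by bin number.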
row,Variant,protein stability index
1,I8Y,2.01
2,I8Q,2.47
3,I8S,3.08
4,I8R,2.32
5,I8L,1.65
6,L4A,2.06
7,L4F,2.35
8,L4H,2.36
9,L4T,2.23
10,L4Q,2.08
11,E12R,2.06
12,E12D,2.13
13,V5G,2.14
14,V5C,2.08
15,V5Q,2.19
16,V5N,1.8
17,K11Q,2.47
18,K11C,2.28
19,E14F,2.15
20,E14N,1.62
21,E14P,1.73
22,E14H,1.96
23,E14Y,2.17
24,K13P,2.32
25,K13F,2.27
26,K13I,3.75

row,Variant,protein stability index
1,K13R,1.67
2,K13S,2.42
3,K13M,1.5
4,K13D,1.56
5,K13W,1.95
6,R9A,1.82
7,R9Y,2.09
8,R9I,2
9,F1P,4.61
10,F1D,4.03
11,F1A,3.95
12,F1C,3.53
13,K22F,1.84
14,K22D,1.8
15,K22V,1.55
16,K22A,2.4
17,K24D,1.83
18,K24R,2.59
19,K24A,1.91
20,K24W,1.24
21,K24E,1.95
22,K24T,1.34
23,K24F,1.77
24,K24I,2.5
25,E7K,1.36
26,E7W,1.59

row,Variant,protein stability index
1,E7D,1.8
2,E7R,1.87
3,E7N,2.44
4,E7L,4.8
5,E7F,1.82
6,R6E,1.55
7,R6P,1.81
8,R6Y,1.73
9,A18C,1.89
10,A18D,1.96
11,A15Y,2.12
12,A15L,1.63
13,A15F,1.91
14,A15C,2.1
15,A15E,1.58
16,V16T,1.57
17,V16F,2.45
18,V16A,2.26
19,K21Y,1.56
20,K21C,1.99
21,K21G,2.17
22,A3L,1.97
23,A3E,1.48
24,A3D,2.19
25,S23D,1.72
26,M19D,2.04

row,Variant,protein stability index
1,M19A,1.68
2,M19W,1.53
3,M19S,1.79
4,E20K,2.08
5,E20M,2.08
6,E20R,2.59
7,E20Y,2.35
8,E20D,2.17
9,H2K,2.73
10,H2I,2.04
11,R10E,1.7
12,R10L,1.55
13,R10N,2.34
14,R10S,1.59
15,R10K,1.33
16,R10W,1.75
17,R10P,2.31
18,R10F,4.17
19,L17H,2.11
20,L17P,1.77
21,L17F,2.12
22,L17D,1.51
23,L17K,1.97
24,L17R,1.9
25,L17Q,1.88

# Variants of: B2
# Assay: as above
# Conditions: c terminus: a fixed tail appended
row,Variant,protein stability index
1,F1N,3.15
2,F1W,2.3
3,F1K,3.17
4,F1G,3.15
5,F1D,3.51
6,F1I,2
7,F1M,1.74
8,F1L,2
9,F1Y,2.03
10,F1C,3.31
11,F1Q,2.98
12,F1P,1.87
13,F1H,2.93
14,F1E,4.08
15,Q3P,1.34
16,Q3M,3.03
17,Q3I,1.58
18,Q3G,1.73
19,Q3F,2.34
20,Q3E,2.51
21,Q3H,2.04
22,Q3D,1.83

row,Variant,protein stability index
1,Q3R,1.48
2,Q3T,1.94
3,Q3N,1.24
4,Q3W,1.51
5,Q3A,2.01
6,Q3L,1.84
7,Q3K,2.54
8,Q3Y,1.73
9,Q3S,2.48
10,T2S,2.71
11,T2A,1.92
12,T2C,2.96
13,T2L,2.25
14,T2Y,2.53
15,T2K,1.72
16,T2W,1.43
17,T2I,2.01
18,T2N,2.17
19,T2D,2.97
20,T2R,1.75
21,T2F,3.05
22,T2Q,2.35

row,Variant,protein stability index
1,T2E,3.58
2,G5I,1.64
3,G5C,2.57
4,G5A,1.81
5,G5H,2.42
6,G5F,2.62
7,G5D,2.74
8,S4E,2.3
9,S4K,1.88
10,S4C,1.48
11,S4Q,2.35
12,S4A,2.37
13,S4P,2
14,S4T,2.82
15,S4Y,2.24
16,S4H,1.91
17,S4L,2.78
18,S4N,1.85
19,S4G,2.01
20,S4I,3.66

# Source: the supplement of paper PMC10567573
